Measurements as given in article PMC10651481, “m1A in CAG repeat RNA binds to TDP-43 and induces neurodegeneration”.

Experiments:
[1] = molecular target: T1, TDP-43 full-length (UniProt Q13148 1-414); test: EMSA; EMSA: 10 mM HEPES pH 8.0, 50 mM KCl, 1 mM EDTA, 5% glycerol, 1 mM DTT, 40 U/ml RNase inhibitor, 4 C, 1 h; 20 fmol probe in 20 ul; 8% native PAGE; details: protein: recombinant, tags: MBP-6xHis (C-terminal as named TDP-43-MBP-6xHis)
[2] = molecular target: TDP-43-RRM (UniProt Q13148 104-262); test: as above; details: protein: recombinant
Sequence of TDP-43-RRM (Q13148 104-262): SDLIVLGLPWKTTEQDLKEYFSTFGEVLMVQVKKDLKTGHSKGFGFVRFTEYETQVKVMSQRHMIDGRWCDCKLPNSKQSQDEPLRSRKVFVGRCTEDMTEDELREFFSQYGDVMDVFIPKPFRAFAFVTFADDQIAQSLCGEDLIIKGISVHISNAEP

[3] = molecular target: T1, TDP-43 full-length; test: EMSA; separate experiment run beside 5FL; differs from 70 nM in 3d,e; EMSA: 10 mM HEPES pH 8.0, 50 mM KCl, 1 mM EDTA, 5% glycerol, 1 mM DTT, 40 U/ml RNase inhibitor, 4 C, 1 h; 20 fmol probe in 20 ul; 8% native PAGE; details: protein: recombinant; tags: MBP-6xHis (C-terminal as named TDP-43-MBP-6xHis); label: 5'-32P

T1 sequence (Q13148 whole entry): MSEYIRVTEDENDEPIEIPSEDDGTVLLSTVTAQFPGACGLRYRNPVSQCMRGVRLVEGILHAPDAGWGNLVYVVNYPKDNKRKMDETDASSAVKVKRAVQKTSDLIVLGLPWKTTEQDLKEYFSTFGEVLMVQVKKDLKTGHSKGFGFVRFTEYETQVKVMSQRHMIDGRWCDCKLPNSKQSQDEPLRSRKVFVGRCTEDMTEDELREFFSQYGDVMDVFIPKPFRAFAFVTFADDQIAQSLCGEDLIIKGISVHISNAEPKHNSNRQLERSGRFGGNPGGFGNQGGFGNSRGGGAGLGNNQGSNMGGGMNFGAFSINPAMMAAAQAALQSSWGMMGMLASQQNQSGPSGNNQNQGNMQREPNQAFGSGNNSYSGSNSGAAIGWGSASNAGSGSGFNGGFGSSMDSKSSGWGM

Row | Binder | Kd ([1]; label: 5'-32P) [nM] | Kd ([2]; label: 5'-32P) [nM] | Kd ([1]; label: 5'-biotin, 3'-32P pCp) [nM] | Kd ([2]; label: 5'-biotin, 3'-32P pCp) [nM] | Kd [3] [nM]
1 | CAGCAGCAGCAGCAGCAGCAG (ssRNA) [(CAG)7-0m1A] | 146 | 380 | – | – | –
2 | CCGUUCCGCCCAGGCCGCGCCCAGCUGGAAUGCA (ssRNA) [Control RNA probe (rA)] | – | – | 38 | 73 | –
3 | CCGUUCCGCCCAGGCCGCGCCCAGCUGGAAUGCA (ssRNA, m6A at position 12) [m6A RNA probe] | – | – | 46 | 81 | –
4 | CCGUUCCGCCCAGGCCGCGCCCAGCUGGAAUGCA (ssRNA, m1A at position 12) [m1A RNA probe] | – | – | 18 | 31 | –
5 | CAGCAGCAGCAGCAGCAGCAG (ssRNA, m1A at position 11) [(CAG)7-1m1A] | 70 | 180 | – | – | 13.1
